Measurements: patent publication US12410262B2, “Peptide conjugates of cytotoxins as therapeutics” (Cybrexa 2, Inc., priority 2019, dated 2025)

Columns and labels:
HCT116 = test: cells; assay type: cell-based, human; details: 96 h
Experimental: Cells were plated in 96 well black walled-clear bottom plates (Griener), DLD-1 WT cells at 2500 cells per well, FaDu, and HeLa cells at 5000 cells per well, and HCT116 at 3000 cells per well, in growth media containing 10% FBS. Cells were allowed to adhere at room temperature for 60 minutes before returning to a 37 C, 5% CO2 incubator. After 24 hours, media was removed and replaced with fresh growth media containing various drug concentrations. Each drug concentration was added in triplicate. Non-drug treated controls contained growth media only. Cells were returned to the incubator. Ninety-six hours after addition of drug, cells were fixed with 4% paraformaldehyde for 20 minutes and stained with Hoechst at 1 ug/mL. The plates were imaged on a Cytation 5 auto imager (BioTek) and cells were counted using CellProfiler (http://cellprofiler.org). The percent cell growth delay was calculated and data plotted using GraphPad Prism

[1] = Glutathione cleavage study; assay type: in vitro ADME; details: Tris buffer with 10 mM glutathione, Glutathione Challenge (10 mM), 100 μM conjugate, Tris pH 7.5, 37° C.
Experimental: A 20 mM stock of conjugate was prepared in 100% DMSO. The stocks were subsequently diluted in 100 mM Tris, pH 7.5, to yield an intermediate dilution of 500 μM followed by an additional dilution of 1:5 in 100 mM Tris, pH 7.5 to give a final concentration of 100 μM of conjugate. 100 mM glutathione was prepared immediately prior to use in H2O and diluted 1:10 in challenge samples for a final glutathione challenge concentration of 10 mM. Samples were mixed by inversion and incubated at 37° C. for up to 24 hrs. […]
(§1) Samples were thawed and extracted as follows: 8 μL of 25% phosphoric acid followed by 117 μL of 100% acetonitrile/0.1% TFA were added to each sample, mixed and centrifuged at 13000×G for 10 minutes. The supernatant was pipetted into 0.2 mL HPLC vials and placed on a Perkin Elmer Flexar HPLC autosampler. The following table summarizes HPLC conditions:
Data was analyzed by calculating the percentage reduction of compound (area of retention time peak of […] conjugate/area of retention time peak of conjugate at time 0)×100.

Plasma stability studies = assay type: in vitro ADME; details: rat plasma, 100 μM conjugate, 37° C.
Experimental: A 20 mM stock of conjugate was prepared in 100% DMSO. The stocks were subsequently diluted in 100 mM Tris, pH 7.5 to yield an intermediate dilution of 500 μM and then diluted 1:5 directly into rat plasma to yield a final concentration of 100 μM of conjugate. Samples were mixed by inversion and incubated at 37° C. for up to 24 h. 50 μL samples were aliquoted into siliconized microfuge tubes at time 0, 4, and 24 h and immediately frozen at −80° C.
as §1, with “100% Acetonitrile/0.1%” for “100% acetonitrile/0.1%”, “TFA was” for “TFA were”
Data was analyzed by calculating the percentage reduction of compound (area of retention time peak of incubated conjugate/area of retention time peak of conjugate at time 0)×100.

Row | Compound | IC50 (HCT116) | remaining at 4 h, 100 µM [1] | remaining at 24 h, 100 µM [1] | remaining at 4 h, 100 µM (Plasma stability studies) | remaining at 24 h, 100 µM (Plasma stability studies)
1 | CC[C@@]1(O)C(=O)OCc2c1cc1n(c2=O)Cc2c-1nc1cc(F)c(C)c3c1c2[C@@H](NC(=O)O[C@H]1COCC[C@@H]1SSC[C@H](NC(=O)[C@H](Cc1c[nH]c2ccccc12)NC(=O)[C@H](CC(C)C)NC(=O)[C@H](CC(C)C)NC(=O)[C@H](CC(=O)O)NC(=O)[C@H](CC(C)C)NC(=O)[C@H](CC(C)C)NC(=O)[C@H](CC(C)C)NC(=O)[C@@H](NC(=O)[C@H](CC(=O)O)NC(=O)[C@@H](NC(=O)[C@@H]1CCCN1C(=O)[C@H](Cc1ccccc1)NC(=O)[C@H](CC(C)C)NC(=O)[C@H](CC(C)C)NC(=O)[C@H](CC(=O)O)NC(=O)[C@H](CC(C)C)NC(=O)[C@H](Cc1ccc(O)cc1)NC(=O)[C@H](C)NC(=O)[C@H](CCCNC(=N)N)NC(=O)[C@H](Cc1c[nH]c2ccccc12)NC(=O)[C@@H]1CCCN1C(=O)[C@H](CC(N)=O)NC(=O)[C@H](CCC(N)=O)NC(=O)[C@H](CC(=O)O)NC(=O)[C@H](CC(=O)O)NC(=O)[C@H](C)N)[C@@H](C)O)[C@@H](C)O)C(=O)NCC(=O)O)CC3 [Compound 21] | 3.1 nM | 9.5% | 12.6% | 101% | 98.2%
2 | CC[C@@]1(O)C(=O)OCc2c1cc1n(c2=O)Cc2c-1nc1cc(F)c(C)c3c1c2[C@@H](NC(=O)O[C@@H]1CCCCC[C@H]1SSC[C@H](NC(=O)[C@H](Cc1c[nH]c2ccccc12)NC(=O)[C@H](CC(C)C)NC(=O)[C@H](CC(C)C)NC(=O)[C@H](CC(=O)O)NC(=O)[C@H](CC(C)C)NC(=O)[C@H](CC(C)C)NC(=O)[C@H](CC(C)C)NC(=O)[C@@H](NC(=O)[C@H](CC(=O)O)NC(=O)[C@@H](NC(=O)[C@@H]1CCCN1C(=O)[C@H](Cc1ccccc1)NC(=O)[C@H](CC(C)C)NC(=O)[C@H](CC(C)C)NC(=O)[C@H](CC(=O)O)NC(=O)[C@H](CC(C)C)NC(=O)[C@H](Cc1ccc(O)cc1)NC(=O)[C@H](C)NC(=O)[C@H](CCCNC(=N)N)NC(=O)[C@H](Cc1c[nH]c2ccccc12)NC(=O)[C@@H]1CCCN1C(=O)[C@H](CC(N)=O)NC(=O)[C@H](CCC(N)=O)NC(=O)[C@H](CC(=O)O)NC(=O)[C@H](CC(=O)O)NC(=O)[C@H](C)N)[C@@H](C)O)[C@@H](C)O)C(=O)NCC(=O)O)CC3 [Compound 22] | 5.9 nM | 65.8% | 12.3% | 106% | 105%
3 | CC[C@@]1(O)C(=O)OCc2c1cc1n(c2=O)Cc2c-1nc1cc(F)c(C)c3c1c2[C@@H](NC(=O)O[C@H]1CCCCC[C@@H]1SSC[C@H](NC(=O)[C@H](Cc1c[nH]c2ccccc12)NC(=O)[C@H](CC(C)C)NC(=O)[C@H](CC(C)C)NC(=O)[C@H](CC(=O)O)NC(=O)[C@H](CC(C)C)NC(=O)[C@H](CC(C)C)NC(=O)[C@H](CC(C)C)NC(=O)[C@@H](NC(=O)[C@H](CC(=O)O)NC(=O)[C@@H](NC(=O)[C@@H]1CCCN1C(=O)[C@H](Cc1ccccc1)NC(=O)[C@H](CC(C)C)NC(=O)[C@H](CC(C)C)NC(=O)[C@H](CC(=O)O)NC(=O)[C@H](CC(C)C)NC(=O)[C@H](Cc1ccc(O)cc1)NC(=O)[C@H](C)NC(=O)[C@H](CCCNC(=N)N)NC(=O)[C@H](Cc1c[nH]c2ccccc12)NC(=O)[C@@H]1CCCN1C(=O)[C@H](CC(N)=O)NC(=O)[C@H](CCC(N)=O)NC(=O)[C@H](CC(=O)O)NC(=O)[C@H](CC(=O)O)NC(=O)[C@H](C)N)[C@@H](C)O)[C@@H](C)O)C(=O)NCC(=O)O)CC3 [Compound 23] | 11.9 nM | 61.4% | 13.2% | 92% | 92%
4 | CC[C@@]1(O)C(=O)OCc2c1cc1n(c2=O)Cc2c-1nc1cc(F)c(C)c3c1c2[C@@H](NC(=O)O[C@H]1CCc2ccccc2[C@@H]1SSC[C@H](NC(=O)[C@H](Cc1c[nH]c2ccccc12)NC(=O)[C@H](CC(C)C)NC(=O)[C@H](CC(C)C)NC(=O)[C@H](CC(=O)O)NC(=O)[C@H](CC(C)C)NC(=O)[C@H](CC(C)C)NC(=O)[C@H](CC(C)C)NC(=O)[C@@H](NC(=O)[C@H](CC(=O)O)NC(=O)[C@@H](NC(=O)[C@@H]1CCCN1C(=O)[C@H](Cc1ccccc1)NC(=O)[C@H](CC(C)C)NC(=O)[C@H](CC(C)C)NC(=O)[C@H](CC(=O)O)NC(=O)[C@H](CC(C)C)NC(=O)[C@H](Cc1ccc(O)cc1)NC(=O)[C@H](C)NC(=O)[C@H](CCCNC(=N)N)NC(=O)[C@H](Cc1c[nH]c2ccccc12)NC(=O)[C@@H]1CCCN1C(=O)[C@H](CC(N)=O)NC(=O)[C@H](CCC(N)=O)NC(=O)[C@H](CC(=O)O)NC(=O)[C@H](CC(=O)O)NC(=O)[C@H](C)N)[C@@H](C)O)[C@@H](C)O)C(=O)NCC(=O)O)CC3 [Compound 24] | 3.4 nM | 20.8% | 4.2% | 87% | 87%
5 | CC[C@@]1(O)C(=O)OCc2c1cc1n(c2=O)Cc2c-1nc1cc(F)c(C)c3c1c2[C@@H](NC(=O)O[C@@H]1CCc2ccccc2[C@H]1SSC[C@H](NC(=O)[C@H](Cc1c[nH]c2ccccc12)NC(=O)[C@H](CC(C)C)NC(=O)[C@H](CC(C)C)NC(=O)[C@H](CC(=O)O)NC(=O)[C@H](CC(C)C)NC(=O)[C@H](CC(C)C)NC(=O)[C@H](CC(C)C)NC(=O)[C@@H](NC(=O)[C@H](CC(=O)O)NC(=O)[C@@H](NC(=O)[C@@H]1CCCN1C(=O)[C@H](Cc1ccccc1)NC(=O)[C@H](CC(C)C)NC(=O)[C@H](CC(C)C)NC(=O)[C@H](CC(=O)O)NC(=O)[C@H](CC(C)C)NC(=O)[C@H](Cc1ccc(O)cc1)NC(=O)[C@H](C)NC(=O)[C@H](CCCNC(=N)N)NC(=O)[C@H](Cc1c[nH]c2ccccc12)NC(=O)[C@@H]1CCCN1C(=O)[C@H](CC(N)=O)NC(=O)[C@H](CCC(N)=O)NC(=O)[C@H](CC(=O)O)NC(=O)[C@H](CC(=O)O)NC(=O)[C@H](C)N)[C@@H](C)O)[C@@H](C)O)C(=O)NCC(=O)O)CC3 [Compound 25] | 2.9 nM | 42% | 4.1% | 103% | 104%
6 | CC[C@@]1(O)C(=O)OCc2c1cc1n(c2=O)Cc2c-1nc1cc(F)c(C)c3c1c2[C@@H](NC(=O)O[C@H]1CC[C@H](SSC[C@H](NC(=O)[C@H](Cc2c[nH]c4ccccc24)NC(=O)[C@H](CC(C)C)NC(=O)[C@H](CC(C)C)NC(=O)[C@H](CC(=O)O)NC(=O)[C@H](CC(C)C)NC(=O)[C@H](CC(C)C)NC(=O)[C@H](CC(C)C)NC(=O)[C@@H](NC(=O)[C@H](CC(=O)O)NC(=O)[C@@H](NC(=O)[C@@H]2CCCN2C(=O)[C@H](Cc2ccccc2)NC(=O)[C@H](CC(C)C)NC(=O)[C@H](CC(C)C)NC(=O)[C@H](CC(=O)O)NC(=O)[C@H](CC(C)C)NC(=O)[C@H](Cc2ccc(O)cc2)NC(=O)[C@H](C)NC(=O)[C@H](CCCNC(=N)N)NC(=O)[C@H](Cc2c[nH]c4ccccc24)NC(=O)[C@@H]2CCCN2C(=O)[C@H](CC(N)=O)NC(=O)[C@H](CCC(N)=O)NC(=O)[C@H](CC(=O)O)NC(=O)[C@H](CC(=O)O)NC(=O)[C@H](C)N)[C@@H](C)O)[C@@H](C)O)C(=O)NCC(=O)O)CC1)CC3 [Compound 26] | 87 nM | 75.8% | 32.1% | 105% | 112%
